As usually defined, the Kd is the free concentration of one partner at which half of the binding sites on the other are occupied at equilibrium, for simple one-to-one binding. Low readings indicate higher affinity, high ones lower affinity.

The source of these data is PMC9579124, “IKKβ binds NLRP3 providing a shortcut to inflammasome activation for rapid immune responses” (Signal Transduction and Targeted Therapy, 2022).

This assay addresses T1, MST-Red-NLRP3 (UniProt Q96P20 1-1036, MST-Red label (position not given)).
T1 construct: NLRP3 labelled with MST-Red for microscale thermophoresis
The experiment in a line: MST; in solution; 50 nM MST-Red-NLRP3 titrated against increasing concentrations of IKKβ; two independent titrations. The conditions noted are these: both partners purified.

T1 sequence (Q96P20 whole entry): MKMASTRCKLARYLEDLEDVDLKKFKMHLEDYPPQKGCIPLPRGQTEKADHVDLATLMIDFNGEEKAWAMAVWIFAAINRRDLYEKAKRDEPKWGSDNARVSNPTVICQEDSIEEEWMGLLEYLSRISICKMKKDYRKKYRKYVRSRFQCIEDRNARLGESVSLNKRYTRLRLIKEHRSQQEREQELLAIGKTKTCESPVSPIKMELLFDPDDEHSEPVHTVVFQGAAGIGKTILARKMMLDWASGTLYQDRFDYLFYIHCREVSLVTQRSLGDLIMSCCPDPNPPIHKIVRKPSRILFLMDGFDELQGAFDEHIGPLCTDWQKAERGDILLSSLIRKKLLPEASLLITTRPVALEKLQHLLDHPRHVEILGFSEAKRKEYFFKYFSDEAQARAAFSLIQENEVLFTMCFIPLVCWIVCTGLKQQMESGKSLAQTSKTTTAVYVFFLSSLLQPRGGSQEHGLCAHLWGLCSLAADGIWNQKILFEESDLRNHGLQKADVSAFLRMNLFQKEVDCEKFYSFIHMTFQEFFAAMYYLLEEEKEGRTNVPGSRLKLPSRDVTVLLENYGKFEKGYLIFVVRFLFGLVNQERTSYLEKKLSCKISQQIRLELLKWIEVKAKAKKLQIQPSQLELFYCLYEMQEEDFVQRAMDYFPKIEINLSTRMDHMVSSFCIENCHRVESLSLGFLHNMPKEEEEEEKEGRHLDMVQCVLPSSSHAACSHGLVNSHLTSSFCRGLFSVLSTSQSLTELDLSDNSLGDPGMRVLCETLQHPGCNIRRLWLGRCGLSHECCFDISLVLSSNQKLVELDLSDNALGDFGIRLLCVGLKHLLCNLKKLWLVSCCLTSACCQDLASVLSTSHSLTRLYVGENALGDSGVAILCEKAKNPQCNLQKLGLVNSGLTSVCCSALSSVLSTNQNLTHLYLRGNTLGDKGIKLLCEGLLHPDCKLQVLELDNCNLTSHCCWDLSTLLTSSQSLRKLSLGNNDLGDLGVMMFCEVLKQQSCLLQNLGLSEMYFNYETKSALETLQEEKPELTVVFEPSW

B1: IKKβ used for microscale thermophoresis (enzyme, UniProt O14920 1-756, looked up)
chain: MSWSPSLTTQTCGAWEMKERLGTGGFGNVIRWHNQETGEQIAIKQCRQELSPRNRERWCLEIQIMRRLTHPNVVAARDVPEGMQNLAPNDLPLLAMEYCQGGDLRKYLNQFENCCGLREGAILTLLSDIASALRYLHENRIIHRDLKPENIVLQQGEQRLIHKIIDLGYAKELDQGSLCTSFVGTLQYLAPELLEQQKYTVTVDYWSFGTLAFECITGFRPFLPNWQPVQWHSKVRQKSEVDIVVSEDLNGTVKFSSSLPYPNNLNSVLAERLEKWLQLMLMWHPRQRGTDPTYGPNGCFKALDDILNLKLVHILNMVTGTIHTYPVTEDESLQSLKARIQQDTGIPEEDQELLQEAGLALIPDKPATQCISDGKLNEGHTLDMDLVFLFDNSKITYETQISPRPQPESVSCILQEPKRNLAFFQLRKVWGQVWHSIQTLKEDCNRLQQGQRAAMMNLLRNNSCLSKMKNSMASMSQQLKAKLDFFKTSIQIDLEKYSEQTEFGITSDKLLLAWREMEQAVELCGRENEVKLLVERMMALQTDIVDLQRSPMGRKQGGTLDDLEEQARELYRRLREKPRDQRTEGDSQEMVRLLLQAIQSFEKKVRVIYTQLSKTVVCKQKALELLPKVEEVVSLMNEDEKTVVRLQEKRQKELWNLLKIACSKVRGPVSGSPDSMNASRLSQPGQLMSQPSTASNSLPEPAKKSEELVAEAHNLCTLLENAIQDTVREQDQSFTALDWSWLQTEEEEHSCLEQAS
notes: IKKβ titrated in MST
Regarding B1, the Kd was determined as 1430 ± 350 nM.
